Assay results published in paper PMC8169611.

Molecular target: mouse proIGF2 (insulin-like growth factor 2 pro-hormone) (mouse)
Assay: fluorescence polarisation

In the case of “mouse proIGF2 (insulin-like growth factor 2 pro-hormone) (natural protein)”, the Kd is reported as 2.98 µM.
